The supplement of paper PMC7877785
± gives the uncertainty stated by the source.

Assay: self-splicing fitness, log relative to wild type (ln ratio); higher = more splicing; Tetrahymena group I intron in knt gene, E. coli kanamycin selection, DiMSum; sequences stand for … in CUCUCU…GGAGGGAAAAGUUAUCAGGCAUGCACCUGGUAGCUAGUCUUUAAACCAAUAGAUUGCAUCGGUUUAAAAGGCAAGACCGUCAAAUUGCGGGAAAGGGGUCAACAGCCGUUCAGUACCAAGUCUCAGGGGAAACUUUGAGAUGGCCUUGCAAAGGGUAUGGUAAUAAGCUGACGGACAUGGUCCUAACCACGCAGCCAAGUCCUAAGUCAACAGAUCUUCUGUUGAUAUGGAUGCAGUUCACAGACUAAAUGUCGGUCGGGGAAGAUGUAUUCUUCUCAUAAGAUAUAGUCGGACCUCUCCUUAAUGGGAGCUAGCGGAUGAAGUGAUGCAACACUGGAGCCGCUGGGAACUAAUUUGUAUGCGAAAGUAUAUUGAUUAGUUUUGGAGUACUCGUGGUCG
In short: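 Pooled colonies went to amplicon sequencing on an Illumina HiSeq 2500 after six replicate transformations. The plates were LB agar with 100 μg/mL carbenicillin, 50 μM IPTG and 0.2% rhamnose, with or without 25 μg/mL kanamycin, incubated overnight at 37°C or 30°C. The E. coli BL21(DE3) library had all eight P1ex-region intron nucleotides randomised, the intron placed in the knt kanamycin-resistance gene on pET-22b(+). DiMSum fitness is the error-weighted combination of replicate fold changes, kanamycin against none, normalised to wild type.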

| Sequence | self-splicing fitness (ln) (30 °C) | self-splicing fitness (ln) (37 °C) |
| --- | --- | --- |
| UACGAGCAAUAUUACGACGA | -1.85 ± 0.18 | -0.325 ± 0.13 |
| UACGAGCAAUAUUACGAGUA | -2.84 ± 0.15 | -2.52 ± 0.15 |
| UACGAGCAAUAUUACGCAGA | – | -2.33 ± 0.31 |
| UACGAGCAAUAUUACGCAUG | -2.37 ± 0.25 | -2.25 ± 0.24 |
| UACGAGCAAUAUUACGCCAU | – | -1.84 ± 0.31 |
| UACGAGCAAUAUUACGCCUU | -3.54 ± 0.43 | – |
| UACGAGCAAUAUUACGCGAU | -4.05 ± 0.3 | -2.28 ± 0.22 |
| UACGAGCAAUAUUACGCGUA | – | -2.35 ± 0.41 |
| UACGAGCAAUAUUACGCUGG | -3.2 ± 0.27 | -1.77 ± 0.16 |
| UACGAGCAAUAUUACGGAUU | -2.38 ± 0.33 | – |
| UACGAGCAAUAUUACGGCAC | – | -2.53 ± 0.41 |
| UACGAGCAAUAUUACGUAAG | -3.58 ± 0.2 | -2.33 ± 0.19 |
| UACGAGCAAUAUUACGUAAU | -4.22 ± 0.31 | -1.43 ± 0.19 |
| UACGAGCAAUAUUACGUAGU | -3.39 ± 0.32 | -2.95 ± 0.33 |
| UACGAGCAAUAUUACGUCUA | -0.512 ± 0.1 | -0.152 ± 0.11 |
| UACGAGCAAUAUUACGUUAU | -3.45 ± 0.12 | -2.24 ± 0.099 |
| UACGAGCAAUAUUACGUUCA | -1.3 ± 0.11 | -0.719 ± 0.13 |
| UACUAGCAAUAUUACGAAAU | – | -3.34 ± 0.4 |
| UACUAGCAAUAUUACGAACC | – | -2.16 ± 0.22 |
| UACUAGCAAUAUUACGAACG | -0.328 ± 0.15 | -0.12 ± 0.18 |
| UACUAGCAAUAUUACGAACU | -1.14 ± 0.21 | -1.51 ± 0.25 |
| UACUAGCAAUAUUACGAGAA | -1.6 ± 0.33 | -0.769 ± 0.22 |
| UACUAGCAAUAUUACGAGAU | -2.46 ± 0.23 | -1.54 ± 0.28 |
| UACUAGCAAUAUUACGAGUA | -2.36 ± 0.18 | -1.77 ± 0.19 |
| UACUAGCAAUAUUACGAUCC | -3.14 ± 0.36 | -2.84 ± 0.38 |
| UACUAGCAAUAUUACGAUUG | -1.88 ± 0.16 | -0.352 ± 0.21 |

| Sequence | self-splicing fitness (ln) (30 °C) | self-splicing fitness (ln) (37 °C) |
| --- | --- | --- |
| UACUAGCAAUAUUACGCGGC | -4.73 ± 0.46 | -2.95 ± 0.4 |
| UACUAGCAAUAUUACGGAUU | -2.82 ± 0.12 | -1.56 ± 0.13 |
| UACUAGCAAUAUUACGGGGC | -3.02 ± 0.3 | -2.5 ± 0.44 |
| UACUAGCAAUAUUACGGGGG | -2.19 ± 0.12 | -1.31 ± 0.14 |
| UACUAGCAAUAUUACGUCUG | -0.817 ± 0.07 | -0.845 ± 0.086 |
| UACUAGCAAUAUUACGUGGC | -2.44 ± 0.18 | -2.91 ± 0.28 |
| UACUAGCAAUAUUACGUGUC | -3.38 ± 0.17 | -2.79 ± 0.15 |
| UACUAGCAAUAUUACGUUAC | -3.86 ± 0.27 | -2.44 ± 0.3 |
| UACUAGCAAUAUUACGUUCC | -2.22 ± 0.32 | -2.33 ± 0.35 |
| UACUAGCAAUAUUACGUUGG | -2.61 ± 0.14 | -0.807 ± 0.15 |
| UAGAAGCAAUAUUACGAAAU | -3.48 ± 0.24 | -1.95 ± 0.21 |
| UAGAAGCAAUAUUACGACAG | -0.764 ± 0.12 | -0.152 ± 0.14 |
| UAGAAGCAAUAUUACGACGC | -1.84 ± 0.33 | -1.21 ± 0.24 |
| UAGAAGCAAUAUUACGAGCA | -1.27 ± 0.096 | 0.167 ± 0.1 |
| UAGAAGCAAUAUUACGAGCC | – | -2.23 ± 0.26 |
| UAGAAGCAAUAUUACGAGGG | -3.17 ± 0.18 | -2.62 ± 0.21 |
| UAGAAGCAAUAUUACGAUAG | -1.57 ± 0.15 | -0.522 ± 0.15 |
| UAGAAGCAAUAUUACGAUCU | -1.11 ± 0.12 | -0.261 ± 0.16 |
| UAGAAGCAAUAUUACGAUGC | -1.9 ± 0.24 | -0.852 ± 0.2 |
| UAGAAGCAAUAUUACGCAAU | -2.51 ± 0.16 | -1.04 ± 0.24 |
| UAGAAGCAAUAUUACGCACA | -0.416 ± 0.098 | -0.144 ± 0.16 |
| UAGAAGCAAUAUUACGCACG | -0.11 ± 0.23 | -0.0394 ± 0.23 |
| UAGAAGCAAUAUUACGCAGU | -4.08 ± 0.29 | -2.07 ± 0.25 |
| UAGAAGCAAUAUUACGCGUG | -1.17 ± 0.13 | -0.211 ± 0.13 |
| UAGAAGCAAUAUUACGCUAA | -1.42 ± 0.12 | -0.983 ± 0.1 |
| UAGAAGCAAUAUUACGCUUC | -2.27 ± 0.18 | -2.81 ± 0.22 |

| Sequence | self-splicing fitness (ln) (30 °C) | self-splicing fitness (ln) (37 °C) |
| --- | --- | --- |
| UAGAAGCAAUAUUACGGAUU | -1.57 ± 0.11 | -1.37 ± 0.15 |
| UAGAAGCAAUAUUACGGCAC | -2.42 ± 0.09 | -1.89 ± 0.095 |
| UAGAAGCAAUAUUACGGCGA | 0.119 ± 0.22 | -0.385 ± 0.24 |
| UAGAAGCAAUAUUACGGGGC | -3.58 ± 0.39 | -1.6 ± 0.21 |
| UAGAAGCAAUAUUACGGUAU | -3.08 ± 0.2 | -2.55 ± 0.17 |
| UAGAAGCAAUAUUACGGUUC | -3.98 ± 0.25 | -2.31 ± 0.19 |
| UAGAAGCAAUAUUACGUACA | -0.549 ± 0.14 | 0.208 ± 0.16 |
| UAGAAGCAAUAUUACGUCAA | -2.08 ± 0.16 | -0.86 ± 0.12 |
| UAGAAGCAAUAUUACGUCGC | -3.7 ± 0.38 | -2.21 ± 0.32 |
| UAGAAGCAAUAUUACGUCGU | -1.75 ± 0.097 | -0.904 ± 0.1 |
| UAGAAGCAAUAUUACGUCUU | -1.18 ± 0.072 | -0.782 ± 0.085 |
| UAGAAGCAAUAUUACGUUCU | -1.61 ± 0.11 | -1.08 ± 0.11 |
| UAGAAGCAAUAUUACGUUUA | -1.21 ± 0.11 | -0.575 ± 0.098 |
| UAGCAGCAAUAUUACGAAAG | -2.58 ± 0.21 | -1.73 ± 0.25 |
| UAGCAGCAAUAUUACGAAGA | -1.64 ± 0.14 | -1.29 ± 0.13 |
| UAGCAGCAAUAUUACGACCG | -0.887 ± 0.13 | -0.0437 ± 0.22 |
| UAGCAGCAAUAUUACGACUC | -0.27 ± 0.091 | 0.54 ± 0.12 |
| UAGCAGCAAUAUUACGCCAA | -1.78 ± 0.12 | -0.98 ± 0.1 |
| UAGCAGCAAUAUUACGCCAU | -4.36 ± 0.3 | -2.32 ± 0.14 |
| UAGCAGCAAUAUUACGCGGG | -2.24 ± 0.14 | -2.04 ± 0.2 |
| UAGCAGCAAUAUUACGCUCG | -1 ± 0.12 | 0.142 ± 0.14 |
| UAGCAGCAAUAUUACGCUUA | -0.452 ± 0.084 | -0.689 ± 0.087 |
| UAGCAGCAAUAUUACGGACC | -1.74 ± 0.18 | -1.67 ± 0.29 |
| UAGCAGCAAUAUUACGGAUA | -0.783 ± 0.081 | -0.203 ± 0.1 |
| UAGCAGCAAUAUUACGGAUU | -3.22 ± 0.14 | -1.08 ± 0.13 |
| UAGCAGCAAUAUUACGGCAU | -1.29 ± 0.081 | -0.191 ± 0.089 |
